Values joined by “and” are separate entries in the source; they are usually repeats but may differ in a detail not shown here. Equal values may be shown once.
Target: Trypanosoma evansi mevalonate kinase (TeMVK), N-terminal 6xHis-tagged recombinant (Trypanosoma evansi)
Experiment: SEC; Superdex 200 16/600, 30 mM glycine pH 9.0, 150 mM NaCl; TeMVK expressed in autoinduction medium ZYM5052; sizes estimated from calibration with gel filtration standard

## Trypanosoma evansi mevalonate kinase (TeMVK), N-terminal 6xHis-tagged recombinant (enzyme)
  stoichiometry N: 2 and 4

Source: article PMC6048237
